Kd data for two molecules are collected here from article doi:10.1101/2022.05.31.494220.

Positions count from the first letter of the chain named. Numbers in names are those of the source.

The target of this assay is peptide encoding HTP-3 closure motif #4 (C. elegans). The assay is described as follows: fluorescence polarisation. A general note: Polarisation of emitted light reports the rotation of a fluorescent probe.

B1: HIM-3 (wildtype) (natural protein)
chain: ATKEQIVEHRESEIPIASQWKATFPVDLEIEKNSEMFALRYIKCASAFILDRRGILDEKCFKTRTIDKLLVTAFQSSVPAAKRVSSTFDGLRDAIQQGYLREFAIVFYKKPNEEDINEVFAFRFAYGDEGEIFVSLNNGIDTNESSQELLQAKFVDTDNTKQMFASTIKKLHRCIKKMEPLPQGSDASFRVSYTEKAPKDYTPEGYLLSPMFYTLNQDIRKASIGIVCGGHHKIQMLAASQYLKQDFDLDKTTTLNPNMSIMANQSKRKGRISRDSPYGLSQGITKKNKD
B1 had a Kd of 220 nM.

B2: HIM-3^R93Y (natural protein)
chain: B1 chain with R92Y
Turning to B2, the Kd stood at 690 nM.

Usually Kd stands for the constant that tells how readily two partners part at equilibrium. Read a low Kd as tighter binding.
